Molecular target: thyroglobulin

SNA (natural lectin, not treated with PNGaseF), sequence (Q41358 29-289): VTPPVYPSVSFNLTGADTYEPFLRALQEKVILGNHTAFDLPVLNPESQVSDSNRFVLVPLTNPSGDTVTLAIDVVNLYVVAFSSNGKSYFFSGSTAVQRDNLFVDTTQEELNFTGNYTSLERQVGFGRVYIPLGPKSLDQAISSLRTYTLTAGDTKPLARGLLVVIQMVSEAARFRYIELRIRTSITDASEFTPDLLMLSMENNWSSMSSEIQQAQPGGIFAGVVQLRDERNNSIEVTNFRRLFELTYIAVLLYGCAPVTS
SNA (natural lectin, not treated with PNGaseF), sequence (Q41358 309-570): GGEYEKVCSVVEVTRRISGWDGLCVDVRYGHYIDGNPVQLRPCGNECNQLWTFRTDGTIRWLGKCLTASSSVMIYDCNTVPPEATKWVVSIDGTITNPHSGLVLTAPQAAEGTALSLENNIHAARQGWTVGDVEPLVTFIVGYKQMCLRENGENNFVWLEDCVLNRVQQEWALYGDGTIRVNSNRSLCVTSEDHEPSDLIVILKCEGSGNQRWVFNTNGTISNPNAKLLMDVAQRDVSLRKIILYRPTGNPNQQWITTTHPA
SNA treated with PNGaseF (sugar chain-removed natural lectin), sequence (Q41358 29-289): as the sequence (Q41358 29-289) above
SNA treated with PNGaseF (sugar chain-removed natural lectin), sequence (Q41358 309-570): as the sequence (Q41358 309-570) above

Row | Substance | S/N Ratio
1 | SSA treated with PNGaseF (sugar chain-removed natural lectin) | 8
2 | SSA (natural lectin, not treated with PNGaseF) | 1.9
3 | MCA (natural lectin, not treated with PNGaseF) | 3.1
4 | MCA treated with PNGaseF (sugar chain-removed natural lectin) | 6.5
5 | SNA treated with PNGaseF (sugar chain-removed natural lectin) | 6
6 | SNA (natural lectin, not treated with PNGaseF) | 1.5
